Experimental data as given in patent US20190276521A1 (Kyowa Kirin, published 2019).

Columns and labels:
[1] = molecular target: full-length CD16a (V) expressed on CHO/DG44 cells (human) (UniProt P08637); experiment: flow cytometry competition on CD16a-expressing CHO/DG44 cells; competitor: anti-DNP antibody complexed with DNP-BSA-biotin
[2] = molecular target: histidine tag-conjugated soluble CD16a (V) (human) (UniProt P08637); experiment: ELISA, soluble CD16a-His captured by anti-Tetra-His antibody, anti-human IgG-HRP detection
Sequence of histidine tag-conjugated soluble CD16a (V) (human) (P08637 other isoform, or with tags, fused parts or gaps limits assumed): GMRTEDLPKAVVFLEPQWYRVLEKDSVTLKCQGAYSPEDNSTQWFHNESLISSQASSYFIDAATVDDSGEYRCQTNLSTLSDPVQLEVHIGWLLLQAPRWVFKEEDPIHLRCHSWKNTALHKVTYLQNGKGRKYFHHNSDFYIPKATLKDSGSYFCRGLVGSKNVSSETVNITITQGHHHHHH

[3] = molecular target: T1, human haptoglobin (human Hp) (human, UniProt P00738 19-160; P00738 162-406); experiment: SEC-MALS of antibody 0.5 mg/mL mixed with human Hp 1.3 mg/mL, 16 hours at 37° C.
T1 sequence 1: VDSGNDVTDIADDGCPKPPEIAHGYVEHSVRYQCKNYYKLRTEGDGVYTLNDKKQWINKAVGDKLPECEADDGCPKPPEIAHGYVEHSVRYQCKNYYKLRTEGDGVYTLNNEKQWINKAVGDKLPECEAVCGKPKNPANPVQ
T1 sequence 2: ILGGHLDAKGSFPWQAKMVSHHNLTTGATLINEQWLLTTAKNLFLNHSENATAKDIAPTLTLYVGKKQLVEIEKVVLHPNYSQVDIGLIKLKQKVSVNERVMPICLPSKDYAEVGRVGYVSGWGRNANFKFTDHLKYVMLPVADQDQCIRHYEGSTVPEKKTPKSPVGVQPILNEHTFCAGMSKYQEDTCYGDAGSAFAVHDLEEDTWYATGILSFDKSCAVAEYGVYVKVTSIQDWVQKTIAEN
Experimental: In order to check whether the anti-Hp antibodies have bound to the human Hp and formed a immune complex, analysis was performed by gel filtration chromatography (Size Exclusion Chromatography, SEC) (column; BioSep SEC-s4000, 7.8×300 mm, Phenomenex Inc.) using HPLC (Prominence, Shimadzu Corporation).
The column was equilibrated using a mobile phase [50 mmol/L phosphate buffer (pH 7.0, 500 mmol/L NaCl)], the anti-Hp antibodies and the human Hp (Japan Blood Products Organization) were diluted with PBS and mixed together such that the concentrations of the anti-Hp antibodies and the human Hp became 0.5 mg/mL and 1.3 mg/mL, respectively, and the mixed solution was left to stand for 16 hours at 37° C.
The components contained in […] of the mixed solution were separated at a flow rate of 0.5 mL/min. Then, for each peak detected at a wavelength of 280 nm, a molecular weight was calculated using a maximum value of scattering intensity detected by a multi angle light scattering (MALS) detector (miniDAWN TREOS, Wyatt Technology Corporation).

Chimera F = molecular target: T2, Chimera F (human with bovine residues, UniProt P00738 19-406); experiment: ELISA on plate-coated antigen (-: absorbance ratio less than 0.5)
T2 construct: Expi293F; also called human Hp/bovine Hp chimeric protein
T2 chain: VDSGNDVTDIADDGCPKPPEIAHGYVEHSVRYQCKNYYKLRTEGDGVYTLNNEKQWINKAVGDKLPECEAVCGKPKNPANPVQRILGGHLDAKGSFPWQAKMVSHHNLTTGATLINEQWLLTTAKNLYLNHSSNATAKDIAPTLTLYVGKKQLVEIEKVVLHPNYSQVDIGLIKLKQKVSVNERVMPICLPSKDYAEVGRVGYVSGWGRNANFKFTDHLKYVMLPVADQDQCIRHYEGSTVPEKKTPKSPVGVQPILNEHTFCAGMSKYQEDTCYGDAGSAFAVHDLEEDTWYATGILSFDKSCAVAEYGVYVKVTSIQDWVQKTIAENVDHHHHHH
Experimental: (§1) The chimeras A to F, the recombinant human Hp and bovine Hp were immobilized in a 96-well plate based on the method described in Example 5, and blocking was performed.
(§2) The plate was washed 3 times with PBST, Goat anti Human IgG (H&L)-HRP or Rabbit anti-Mouse IgG-HRP diluted with 1% BSA-PBS was dispensed into the plate at 50 μL/well, and the plate was left to stand for 1 hour at room temperature. The color development and the absorbance measurement to be carried out thereafter were performed based on the method described in Example 5. By regarding the absorbance of the well, in which each of the anti-Hp antibodies was reacted with the recombinant human Hp, as 1, a ratio of the absorbance, in which the sample was reacted, to the aforementioned absorbance was calculated.

[4] = molecular target: T1, human haptoglobin (human Hp); experiment: competitive ELISA on plate-coated human Hp (-: absorbance less than 0.5); competitor: anti-Hp polyclonal antibody
Experimental: The immobilized solution was removed, 1% BSA-PBS was then dispensed into the plate at 100 μL/well, and the plate was left to stand for 1 hour at room temperature for blocking and washed 3 times with PBST.
The plate was washed 3 times of PBST, and ABTS was dispensed into the plate at 50 μL/well for developing color. At a point in time when color was appropriately developed, 1% SDS was dispensed into the plate at 50 μL/well, and by using a plate reader, the absorbance at a sample wavelength of 415 nm and a reference wavelength of 490 nm was measured.

Chimera A = molecular target: T3, Chimera A (human with bovine residues, UniProt P00738 19-406); experiment: ELISA on plate-coated antigen (-: absorbance ratio less than 0.5)
T3 construct: α and β linked by a disulfide bond; Expi293F; also called human Hp/bovine Hp chimeric protein
T3 chain: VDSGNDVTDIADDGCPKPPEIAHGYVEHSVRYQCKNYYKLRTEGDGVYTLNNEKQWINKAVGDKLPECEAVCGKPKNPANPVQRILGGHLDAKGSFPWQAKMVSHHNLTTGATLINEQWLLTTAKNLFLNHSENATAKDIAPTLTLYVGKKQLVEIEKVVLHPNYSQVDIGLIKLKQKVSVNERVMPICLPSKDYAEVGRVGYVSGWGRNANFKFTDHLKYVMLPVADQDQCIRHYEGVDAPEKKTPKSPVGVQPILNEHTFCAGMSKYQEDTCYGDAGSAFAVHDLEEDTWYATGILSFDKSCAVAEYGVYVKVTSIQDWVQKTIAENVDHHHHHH
Experimental: as §1, §2

Sequence of full-length CD16a (V) expressed on CHO/DG44 cells (human) (P08637 17-254 F176V limits assumed): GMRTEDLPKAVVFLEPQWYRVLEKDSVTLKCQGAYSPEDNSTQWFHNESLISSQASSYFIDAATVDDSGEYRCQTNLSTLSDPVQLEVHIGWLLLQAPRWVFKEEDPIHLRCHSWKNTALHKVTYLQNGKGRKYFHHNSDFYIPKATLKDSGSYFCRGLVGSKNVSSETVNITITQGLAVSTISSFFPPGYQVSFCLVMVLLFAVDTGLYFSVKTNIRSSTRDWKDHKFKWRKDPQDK

Molecule | IC50 [1] [µg/mL] | EC50 [2] [µg/mL] | Peak molecular weight of immune complex [3] | absorbance ratio to recombinant human Hp (Chimera F) | absorbance (415 nm, reference 490 nm) [4] | absorbance ratio to recombinant human Hp (Chimera A)
Intravenous immunoglobulin (IVIG) (antibody) | 540 | 1.06 | – | – | – | –
anti-Hp antibody #4 (antibody, V domains shown, also called clone #4; #4 antibody) VH: EVHLLESGGGLVQPGGSLRLSCQASGFTFNSNAMSWVRRAPGKGLEWISSIGANTNYIYTADSVKGRFTISRDNSKNTLYLQMNSLRAEDTAAYYCAKNRDRYSYDAWSVWGQGTTVTVSS VL: DIQMTQSPSTLSASVGDRVTITCRASQSIDIWLAWYQQKPGKAPKLLIYEASSLESEVPSRFSGSGSGTEFTLTISSLQPDDFATYYCQAYNSNYPYAFGQGTNLEIK | – | 1.99 | 341000 | – | – | –
anti-Hp antibody #27 (antibody, V domains shown, Recombinant human IgG1/kappa antibody; also called clone #27; #27 antibody) VH: EQQLVESGGGLVQPGRSLTLSCVASGFTFGDYAMGWVRQAPGKGLEWVSSISSDALYKGYVDSVKGRFTVSRDNAKNSLYLQMDNLRTEDTAFYYCTKDLRSGNFGQYGDWGQGTLVTVSS VL: AIQMTQSPSSLSASVGDRVTITCRASQGIGSDLTWYQQEPGKAPKLLIYAASTLQSGVPSRFSGGGSGTDFTLTISSLQPEDAATYYCLQSHGYPLTFGQGTKLEIK | 238 | 0.763 | 523000 | < 0.5 | – | –
anti-Hp antibody #96-6 (antibody, V domains shown, Recombinant human IgG1/kappa antibody; also called clone #96-6; Labeled #96-6) VH: EVQLLESGGGLVQPGGSLRLSCEASGSSVSSHFMTWVRQSPGKGLEWVSSISPNPAYTYYANSVKGRFTISRDNSKNMLYLQMNDLRAEDTARYYCARRSDFDTWGQGTMLTVSS VL: DIQMTQSPSAMSASVGDRVTITCRASRYIGKDLAWFQQKPGEVPKRLIYDASSLQSGVPSRFSGSGSGTEFTLTVSNLQPEDLGTYYCQHYYTFPLTFGPGTKVDIK | – | 0.473 | – | – | < 0.5 | –
anti-Hp antibody #105 (antibody, V domains shown, Recombinant human IgG1/kappa antibody) VH: QVHLQQWGAGLLKPSETLSLTCNVYGSSLSQYFWNWIRQPPGKGLEWMGRITSGGSTNYNPSLESRVTIIVDTFKNQFSLKLVSVTAADTAVYYCARGPFVEGAAPTVLGTGFSIWGQGTMVTVSS VL: EIVLTQSPGTLSLSPGERATLSCRASQSVNNNYLAWYQQKPGQAPRLLIYDASKRATGIPDRFSGSGSGTDFTLTISRLEPEDFAVYYCQQYGHSRPYTFGQGAKLEIK | – | 0.405 | – | – | < 0.5 | < 0.5
anti-Hp antibody #6 (antibody, V domains shown, Recombinant human IgG1/kappa antibody; also called clone #6; #6 antibody) VH: EVQLLESGGGLVQPGGSLKLSCVASEFTFSNYAMSWVRQAPGKGLEWVSTFSSGGSRTFYADSVRGRFTISRDNSNNMLFLQIDSLRAEDTAVYYCAKAQFVGHWAQYNYWGQGALVTVSS VL: DIQMTQSPSSLSASVGDRVAITCRASQGIRNYLAWYQQKPGKVPKLLIYDAFILQSGVPSRFSGSGSGTDFTLTISSLQPEDVATYYCQKSDSPPLTFGGGTKVEIK | – | 0.805 | – | – | < 0.5 | –
